{
  "source": "paper PMC3355305",
  "about": "“Localized Dimerization and Nucleoid Binding Drive Gradient Formation by the Bacterial Cell Division Inhibitor MipZ” (Molecular Cell, 2012)",
  "parents": {"B1": {"name": "MipZ (wild type), hexahistidine-tagged [Caulobacter crescentus] / itself (parent)", "chain": "MAETRVIVVGNEKGGAGKSTIAVHLVTALLYGGAKVAVIDLDLRQRTSARFFENRRAWLDNKKIELPEPLALNLSDNDVALAERPEEEQVAGFEAAFARAMAECDFILIDTPGGDSAITRMAHGRADLVVTPMNDSFVDFDMLGTVDPVTLELTKPSLYSLTVWEGRKQRALSGQRQAMDWVVLRNRLATTEARNRKRLEDRLNALAKRVGFRIGPGLRDRVIYRELFPFGLTIADLSPQVRPVPVSLQHLAARQELRALMHSLGLSAYSGETMLAAQ"}},
  "data": [
    {"variants_of": "B1", "test": "SPR", "details": "with itself; 3500 RU immobilized protein; 0.5 μM soluble protein; + ATP; parent: 370; read off a plot", "units": {"response": "RU"}, "values": [
      {"variant": "MAETRVIVVGNEKGGAGKSTIAVHLVTALLYGGAKVAVIDLALRQRTSARFFENRRAWLDNKKIELPEPLALNLSDNDVALAERPEEEQVAGFEAAFARAMAECDFILIDTPGGDSAITRMAHGRADLVVTPMNDSFVDFDMLGTVDPVTLELTKPSLYSLTVWEGRKQRALSGQRQAMDWVVLRNRLATTEARNRKRLEDRLNALAKRVGFRIGPGLRDRVIYRELFPFGLTIADLSPQVRPVPVSLQHLAARQELRALMHSLGLSAYSGETMLAAQ", "note": "[chain 1 D42A]", "response": 910}
    ]},
    {"variants_of": "B1", "test": "SPR", "details": "with itself; 3500 RU immobilized protein; 0.5 μM soluble protein; ATP in the binding phase; wash with buffer lacking protein and nucleotides", "units": {"koff": "s⁻¹"}, "values": [
      {"variant": "MAETRVIVVGNEKGGAGKSTIAVHLVTALLYGGAKVAVIDLALRQRTSARFFENRRAWLDNKKIELPEPLALNLSDNDVALAERPEEEQVAGFEAAFARAMAECDFILIDTPGGDSAITRMAHGRADLVVTPMNDSFVDFDMLGTVDPVTLELTKPSLYSLTVWEGRKQRALSGQRQAMDWVVLRNRLATTEARNRKRLEDRLNALAKRVGFRIGPGLRDRVIYRELFPFGLTIADLSPQVRPVPVSLQHLAARQELRALMHSLGLSAYSGETMLAAQ", "note": "[chain 1 D42A]", "koff": 0.00112}
    ]}
  ]
}
